Experimental findings from patent publication US20020176866A1 are described below.

Non-standard residues stand in square brackets, D forms with d. No end group written: not given here.

The target of assay [1] is rat MHC class II (I-A or I-E) on splenic adherent cells (antigen presenting cells) (rat). The assay can be described thus: competition with 10 µM biotin-labeled MBP native peptide on rat splenic adherent cells, flow cytometry; competitor at 100 µM. On the technique in general: A flow cytometer gives signals particle by particle.
For assay [2] the target is unchanged. The assay can be described thus: competition with 10 µM biotin-labeled MBP (87-99) on rat splenic adherent cells, flow cytometry; competitor at 200 µM.

In assay [1], D[dA]NPVVHAFANIVTPRT [a83, A89, A91 peptide analog of human myelin basic protein] displayed a percent inhibition of binding at 100 µM of 25%.
Turning to VV[dH]FFANIVTPRT [h88/A91, peptide analog of MBP (87-99) with D-histidine at residue 88 and alanine at residue 91], the percent inhibition of binding at 200 µM in assay [2] was 67.6%.
The molecule VVHFFKNIVTPRT [MBP (87-99), human myelin basic protein residues 87-99] yielded a percent inhibition of binding at 100 µM in assay [1] of 40%. The molecule further yielded a percent inhibition of binding at 200 µM in assay [2] of 68.4%.
